Laboratory results from publication PMC6211770, “Structure-guided disruption of the pseudopilus tip complex inhibits the Type II secretion in Pseudomonas aeruginosa” (PLoS Pathogens, 2018).

Target: T1, XcpX (29–313), soluble form (P. aeruginosa, UniProt Q00518 29-313)
T1 construct: minor pseudopilin XcpX (GspK) of Pseudomonas aeruginosa, soluble form, residues 29-313; buffers with XcpX held 1 mM CaCl2; The XcpVWX complex was digested in situ with chymotrypsin before crystallisation; also called XcpX^(GspK); GspK; source: E. coli BL21 (DE3), purified (Ni2+-NTA, TEV digestion, Superdex 75); not shown: thioredoxin (Trx), N-terminal, cleaved
T1 sequence: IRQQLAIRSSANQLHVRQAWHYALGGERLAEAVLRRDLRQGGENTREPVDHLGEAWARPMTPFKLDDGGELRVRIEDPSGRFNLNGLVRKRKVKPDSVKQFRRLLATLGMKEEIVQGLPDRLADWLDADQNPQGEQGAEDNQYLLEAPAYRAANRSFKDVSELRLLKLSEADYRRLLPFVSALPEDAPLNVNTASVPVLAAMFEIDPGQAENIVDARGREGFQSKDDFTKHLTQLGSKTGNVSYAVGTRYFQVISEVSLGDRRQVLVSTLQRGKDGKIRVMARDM
Assay: SAXS with inline SEC; XcpUVWX complex at 6.15 mg/ml in 25 mM HEPES pH 7.0, 150 mM NaCl, 5% glycerol, 2 mM DTT
Conditions: both partners purified

B1: XcpV (28–129), soluble form (domain or fragment)
chain: SASARSLQNASRLEDKTLAMWIADNRLNELQLEQTPPSSGRNQGELEFAGRRWEWRTQVDSTAEQDMRRVIVWVAAKPLGRERGSIEERAAARLVGFLGSQP
notes: minor pseudopilin XcpV (GspI) of Pseudomonas aeruginosa, soluble form, residues 28-129; The XcpVWX complex was digested in situ with chymotrypsin before crystallisation; the chains in PDB 5VTM may be shorter; also called XcpV^(GspI); GspI; source: E. coli BL21 (DE3), purified (Ni2+-NTA, TEV digestion, Superdex 75); not shown: thioredoxin (Trx), N-terminal, cleaved
binding result: binds
